According to article PMC11189301, “Structure of the human outer kinetochore KMN network complex” (Nature Structural & Molecular Biology, 2024):

T1: MIS12 complex with Dsn1 residues 6–113 deleted (Homo sapiens, UniProt Q9H081 1-205; Q6P1K2 1-205; Q9H410 1-356; Q96IY1 1-281, 6–113 residues deleted)
T1 construct: Mis12, subunit of human MIS12C; Pmf1, subunit of human MIS12C; Nsl1, subunit of human MIS12C; also called MIS12C^Dsn1ΔN; MIS12C^ΔN-Dsn1; source: High-5 insect cells (baculovirus), purified (Strep-Tactin, Resource S, Superdex 200); copies: + + +
T1 sequence (looked up) 1: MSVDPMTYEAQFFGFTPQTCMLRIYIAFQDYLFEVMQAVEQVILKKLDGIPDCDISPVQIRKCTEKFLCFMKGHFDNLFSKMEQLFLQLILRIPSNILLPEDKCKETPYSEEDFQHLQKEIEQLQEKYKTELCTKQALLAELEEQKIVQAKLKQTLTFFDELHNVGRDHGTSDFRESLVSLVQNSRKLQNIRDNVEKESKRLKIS
T1 sequence (looked up) 2: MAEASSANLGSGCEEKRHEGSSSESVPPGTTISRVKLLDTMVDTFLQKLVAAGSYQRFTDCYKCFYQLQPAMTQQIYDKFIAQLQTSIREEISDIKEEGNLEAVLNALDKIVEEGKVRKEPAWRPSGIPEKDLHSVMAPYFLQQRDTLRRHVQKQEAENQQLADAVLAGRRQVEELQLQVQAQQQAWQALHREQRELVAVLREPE
T1 sequence (looked up) 3: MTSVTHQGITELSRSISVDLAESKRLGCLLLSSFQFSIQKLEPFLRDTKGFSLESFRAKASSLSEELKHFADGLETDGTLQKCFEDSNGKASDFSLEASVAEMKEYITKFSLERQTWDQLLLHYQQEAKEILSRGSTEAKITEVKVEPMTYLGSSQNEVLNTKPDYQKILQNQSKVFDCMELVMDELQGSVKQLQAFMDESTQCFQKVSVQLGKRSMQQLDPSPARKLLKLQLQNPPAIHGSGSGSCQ
T1 sequence (looked up) 4: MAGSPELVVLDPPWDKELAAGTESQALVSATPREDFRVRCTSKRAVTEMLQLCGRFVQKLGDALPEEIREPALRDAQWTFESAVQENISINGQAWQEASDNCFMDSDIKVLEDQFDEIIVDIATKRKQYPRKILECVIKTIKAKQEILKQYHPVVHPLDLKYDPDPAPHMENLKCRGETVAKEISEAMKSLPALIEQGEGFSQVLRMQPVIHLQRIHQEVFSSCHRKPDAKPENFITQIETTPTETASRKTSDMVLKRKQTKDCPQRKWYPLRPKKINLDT

T2: MIS12 complex (Mis12, Pmf1, Dsn1, Nsl1), wild type, full length (Homo sapiens, UniProt Q9H081 1-205; Q6P1K2 1-205; Q9H410 1-356; Q96IY1 1-281)
T2 construct: Mis12, subunit of human MIS12C; Pmf1, subunit of human MIS12C; Dsn1, subunit of human MIS12C; Nsl1, subunit of human MIS12C; The DS tag on Pmf1 is TEV cleavable; a cleavage is not described; also called MIS12C (WT); wild-type MIS12C; source: High-5 insect cells (baculovirus), purified (Strep-Tactin, Resource S, Superdex 200); copies: + + +
T2 sequence (looked up) 1: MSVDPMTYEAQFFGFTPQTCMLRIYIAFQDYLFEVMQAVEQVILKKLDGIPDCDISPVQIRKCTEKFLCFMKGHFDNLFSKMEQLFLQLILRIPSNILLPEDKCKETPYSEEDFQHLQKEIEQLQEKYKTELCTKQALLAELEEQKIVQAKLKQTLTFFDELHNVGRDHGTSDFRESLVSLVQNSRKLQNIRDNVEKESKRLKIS
T2 sequence (looked up) 2: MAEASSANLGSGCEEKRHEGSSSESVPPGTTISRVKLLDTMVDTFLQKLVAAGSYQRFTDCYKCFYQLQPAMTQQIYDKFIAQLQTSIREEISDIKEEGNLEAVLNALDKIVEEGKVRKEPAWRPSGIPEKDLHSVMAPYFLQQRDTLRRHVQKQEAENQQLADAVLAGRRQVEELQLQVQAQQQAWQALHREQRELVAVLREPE
T2 sequence (looked up) 3: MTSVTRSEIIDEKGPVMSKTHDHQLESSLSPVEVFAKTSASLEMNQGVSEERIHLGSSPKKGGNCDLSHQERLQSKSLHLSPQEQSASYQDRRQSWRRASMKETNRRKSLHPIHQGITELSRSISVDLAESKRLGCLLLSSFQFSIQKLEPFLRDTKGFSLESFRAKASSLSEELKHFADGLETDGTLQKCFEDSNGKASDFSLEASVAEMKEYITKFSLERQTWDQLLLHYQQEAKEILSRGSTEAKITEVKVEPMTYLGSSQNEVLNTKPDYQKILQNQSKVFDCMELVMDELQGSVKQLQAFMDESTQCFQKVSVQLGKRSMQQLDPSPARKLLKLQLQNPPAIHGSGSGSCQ
T2 sequence (looked up) 4: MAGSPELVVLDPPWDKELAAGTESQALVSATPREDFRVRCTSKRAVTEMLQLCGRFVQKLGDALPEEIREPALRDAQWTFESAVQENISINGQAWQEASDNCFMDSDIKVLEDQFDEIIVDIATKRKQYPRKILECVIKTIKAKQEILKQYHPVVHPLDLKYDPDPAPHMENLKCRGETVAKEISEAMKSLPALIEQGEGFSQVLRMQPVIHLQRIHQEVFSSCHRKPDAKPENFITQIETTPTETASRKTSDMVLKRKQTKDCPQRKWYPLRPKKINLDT

T3: MIS12 complex with phosphomimetic Dsn1 S100D S109D (Homo sapiens, UniProt Q9H081 1-205; Q6P1K2 1-205; Q9H410 1-356; Q96IY1 1-281, S100D | S109D)
T3 construct: Mis12, subunit of human MIS12C; Pmf1, subunit of human MIS12C; Dsn1, subunit of human MIS12C, S100D S109D; Nsl1, subunit of human MIS12C; also called MIS12C^(Dsn1-S100D S109D); MIS12C^(Dsn1 S100D/S109D); source: High-5 insect cells (baculovirus), purified (Strep-Tactin, Resource S, Superdex 200); copies: + + +
T3 sequence (looked up) 1: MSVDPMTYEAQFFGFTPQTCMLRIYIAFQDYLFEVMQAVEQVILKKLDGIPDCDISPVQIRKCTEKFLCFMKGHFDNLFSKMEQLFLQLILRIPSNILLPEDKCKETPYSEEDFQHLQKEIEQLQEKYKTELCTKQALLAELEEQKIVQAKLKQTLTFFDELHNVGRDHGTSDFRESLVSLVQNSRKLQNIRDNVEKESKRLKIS
T3 sequence (looked up) 2: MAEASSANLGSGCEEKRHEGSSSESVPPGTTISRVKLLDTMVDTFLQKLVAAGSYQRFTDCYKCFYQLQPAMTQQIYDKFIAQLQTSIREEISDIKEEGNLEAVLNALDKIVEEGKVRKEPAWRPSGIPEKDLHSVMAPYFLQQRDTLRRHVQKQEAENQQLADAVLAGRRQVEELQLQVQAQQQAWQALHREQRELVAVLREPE
T3 sequence (looked up) 3: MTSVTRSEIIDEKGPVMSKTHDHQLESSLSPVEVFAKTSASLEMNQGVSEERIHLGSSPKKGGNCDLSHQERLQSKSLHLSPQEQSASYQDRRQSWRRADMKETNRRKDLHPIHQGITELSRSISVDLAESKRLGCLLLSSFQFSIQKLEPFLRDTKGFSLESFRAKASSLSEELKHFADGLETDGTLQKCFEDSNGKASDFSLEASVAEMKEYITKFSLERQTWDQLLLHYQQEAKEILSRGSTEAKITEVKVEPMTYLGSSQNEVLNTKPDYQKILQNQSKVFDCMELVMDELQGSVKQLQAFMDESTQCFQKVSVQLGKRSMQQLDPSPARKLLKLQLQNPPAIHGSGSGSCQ
T3 sequence (looked up) 4: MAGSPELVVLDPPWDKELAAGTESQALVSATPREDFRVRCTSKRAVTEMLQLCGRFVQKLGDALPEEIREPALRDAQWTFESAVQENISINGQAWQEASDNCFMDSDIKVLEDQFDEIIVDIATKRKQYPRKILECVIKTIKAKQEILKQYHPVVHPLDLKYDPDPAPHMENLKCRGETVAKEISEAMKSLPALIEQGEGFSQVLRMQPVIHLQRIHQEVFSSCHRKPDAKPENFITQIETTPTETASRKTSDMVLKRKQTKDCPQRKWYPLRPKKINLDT

T4: Knl1 residues 1870–2342 (human, UniProt Q8NG31 1870-2342)
T4 construct: Knl1, human, 2,342-residue protein, residues 1870-2342; coordinates traced R2097–H2342; Subunit within the KMN network cryo-EM sample; also called extended version of the Knl1 C terminus; source: High-5 insect cells, expressed and purified as part of KNL1C
T4 sequence (looked up): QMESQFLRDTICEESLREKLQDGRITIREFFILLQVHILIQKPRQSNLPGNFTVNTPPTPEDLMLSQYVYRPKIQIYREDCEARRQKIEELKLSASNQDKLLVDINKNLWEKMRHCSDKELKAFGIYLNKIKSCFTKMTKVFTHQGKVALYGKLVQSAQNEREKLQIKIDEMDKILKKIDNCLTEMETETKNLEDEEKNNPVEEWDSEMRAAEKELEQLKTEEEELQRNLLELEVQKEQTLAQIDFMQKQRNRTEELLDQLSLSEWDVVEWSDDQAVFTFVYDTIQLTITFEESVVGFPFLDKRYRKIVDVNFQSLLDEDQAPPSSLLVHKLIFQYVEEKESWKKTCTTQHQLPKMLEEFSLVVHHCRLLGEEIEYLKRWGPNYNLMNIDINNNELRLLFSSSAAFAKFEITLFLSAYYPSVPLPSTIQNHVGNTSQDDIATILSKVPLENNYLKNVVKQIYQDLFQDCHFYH

T5: Dsn1 (Homo sapiens, UniProt Q9H410 1-356)
T5 construct: Dsn1, subunit of human MIS12C; Subunit within the KMN network cryo-EM sample; residues N-terminal to Arg92 are disordered; source: High-5 insect cells, expressed and purified as part of MIS12C
T5 sequence (looked up): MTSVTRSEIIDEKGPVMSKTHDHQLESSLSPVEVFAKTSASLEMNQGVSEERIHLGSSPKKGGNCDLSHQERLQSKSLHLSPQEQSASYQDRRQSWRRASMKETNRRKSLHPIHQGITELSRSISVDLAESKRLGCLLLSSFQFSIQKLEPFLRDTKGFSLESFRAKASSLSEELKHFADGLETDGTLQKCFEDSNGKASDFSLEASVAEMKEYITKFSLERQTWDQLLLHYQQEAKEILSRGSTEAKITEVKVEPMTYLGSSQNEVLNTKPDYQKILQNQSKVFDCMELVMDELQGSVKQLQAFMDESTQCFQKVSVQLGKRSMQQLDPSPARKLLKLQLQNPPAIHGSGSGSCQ

T6: Mis12 (Homo sapiens, UniProt Q9H081 1-205)
T6 construct: Mis12, subunit of human MIS12C; Subunit within the KMN network cryo-EM sample; source: High-5 insect cells, expressed and purified as part of MIS12C
T6 sequence (looked up): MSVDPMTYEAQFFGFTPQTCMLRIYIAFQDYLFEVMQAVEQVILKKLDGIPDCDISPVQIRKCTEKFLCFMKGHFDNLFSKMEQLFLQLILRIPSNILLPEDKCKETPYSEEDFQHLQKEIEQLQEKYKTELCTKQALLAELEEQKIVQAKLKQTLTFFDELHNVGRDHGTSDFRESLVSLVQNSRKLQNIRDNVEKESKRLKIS


Key:
Conditions in all cases: both partners purified
[1] = target: T1, MIS12 complex with Dsn1 residues 6–113 …; test: ITC; peptide in the syringe titrated into the MIS12C variant in the cell; 20 °C; 20 mM HEPES pH 7.5, 100 mM NaCl, 1 mM TCEP; single-site binding model; duplicate or triplicate
[2] = target: T2, MIS12 complex (Mis12, Pmf1, Dsn1, …); test: as above
[3] = target: T3, MIS12 complex with phosphomimetic Dsn1 …; test: as above
Knl1 residues 1870–2342 = target: T4, Knl1 residues 1870–2342; test: cryo-EM structure; NDC80C, MIS12C and KNL1C mixed 1:1:1 and run on Superose 6 in 20 mM HEPES pH 8.0, 80 mM NaCl, 1 mM MgCl2, 1 mM TCEP; about 1 mg/ml on UltrAuFoil grids; 3.0 Å (MIS12C heads 3.8 Å)
Dsn1 = target: T5, Dsn1; test: as above
Mis12 = target: T6, Mis12; test: as above

Kd [1] [nM] | Kd [2] [nM] | Kd [3] [nM] | binding result (Knl1 residues 1870–2342) | binding result (Dsn1) | binding result (Mis12) | Binder
10.2 | 485 | 20.4 |  |  |  | Ac-AASGLDHLKNGYRRRFCRPSRA-NH2 (CENP-C, human, named residues 2-22; also called N-terminal region of CENP-C (residues 2–22); source: synthetic peptide (Biosynth)) [CENP-C^2–22 peptide]
 |  |  | binds | binds | binds | Pmf1 (natural protein, Homo sapiens, UniProt Q6P1K2 1-205, looked up, Pmf1, subunit of human MIS12C; Subunit within the KMN network cryo-EM sample; source: High-5 insect cells, expressed and purified as part of MIS12C) MAEASSANLGSGCEEKRHEGSSSESVPPGTTISRVKLLDTMVDTFLQKLVAAGSYQRFTDCYKCFYQLQPAMTQQIYDKFIAQLQTSIREEISDIKEEGNLEAVLNALDKIVEEGKVRKEPAWRPSGIPEKDLHSVMAPYFLQQRDTLRRHVQKQEAENQQLADAVLAGRRQVEELQLQVQAQQQAWQALHREQRELVAVLREPE
